Measurements: patent publication US20160194394A1 (GOVERNING COUNCIL OF THE UNIVERSITY OF TORONTO, published 2016)
Substitutions are numbered along the chain they refer to.

B1: D5 (Fab)
light: DIQMTQSPSSLSASVGDRVTITCRASQSVSSAVAWYQQKPGKAPKLLIYSASSLYSGVPSRFSGSRSGTDFTLTISSLQPEDFATYYCQQAYYLITFGQGTKVEIKRTVAAPSVFIFPPSDSQLKSGTASVVCLLNNFYPREAKVQWKVDNALQSGNSQESVTEQDSKDSTYSLSSTLTLSKADYEKHKVYACEVTHQGLSSPVTKSFNRGECGGS
heavy: EVQLVESGGGLVQPGGSLRLSCAASGFNIYYSSIHWVRQAPGKGLEWVASIYPSSGYTYYADSVKGRFTISADTSKNTAYLQMNSLRAEDTAVYYCARWAPHSSSWWSVYGWSAWAFDYWGQGTLVTVSSASTKGPSVFPLAPSSKSTSGGTAALGCLVKDYFPEPVTVSWNSGALTSGVHTFPAVLQSSGLYSLSSVVTVPSSSLGTQTYICNVNHKPSNTKVDKKVEPKSC
notes: selection round 2; also called Fzd7-R2-D5
B2: C8 (Fab)
light: DIQMTQSPSSLSASVGDRVTITCRASQSVSSAVAWYQQKPGKAPKLLIYSASSLYSGVPSRFSGSRSGTDFTLTISSLQPEDFATYYCQQYSPSSFLITFGQGTKVEIKRTVAAPSVFIFPPSDSQLKSGTASVVCLLNNFYPREAKVQWKVDNALQSGNSQESVTEQDSKDSTYSLSSTLTLSKADYEKHKVYACEVTHQGLSSPVTKSFNRGECGGS
heavy: EVQLVESGGGLVQPGGSLRLSCAASGFNIYYSYIHWVRQAPGKGLEWVASISSSSGYTSYADSVKGRFTISADTSKNTAYLQMNSLRAEDTAVYYCARSYGYYYYFYYYGGMDYWGQGTLVTVSSASTKGPSVFPLAPSSKSTSGGTAALGCLVKDYFPEPVTVSWNSGALTSGVHTFPAVLQSSGLYSLSSVVTVPSSSLGTQTYICNVNHKPSNTKVDKKVEPKSC
notes: selection round 2; also called Fzd7-R2-C8
B3: C11 (Fab)
light: DIQMTQSPSSLSASVGDRVTITCRASQSVSSAVAWYQQKPGKAPKLLIYSASSLYSGVPSRFSGSRSGTDFTLTISSLQPEDFATYYCQQGHYYPYYLFTFGQGTKVEIKRTVAAPSVFIFPPSDSQLKSGTASVVCLLNNFYPREAKVQWKVDNALQSGNSQESVTEQDSKDSTYSLSSTLTLSKADYEKHKVYACEVTHQGLSSPVTKSFNRGECGGS
heavy: EVQLVESGGGLVQPGGSLRLSCAASGFNIYYSYMHWVRQAPGKGLEWVASIYSYSGYTYYADSVKGRFTISADTSKNTAYLQMNSLRAEDTAVYYCARSVWGYPYGMDYWGQGTLVTVSSASTKGPSVFPLAPSSKSTSGGTAALGCLVKDYFPEPVTVSWNSGALTSGVHTFPAVLQSSGLYSLSSVVTVPSSSLGTQTYICNVNHKPSNTKVDKKVEPKSC
notes: selection round 2; also called Fzd7-R2-C11
B4: D2 (Fab)
light: B2 light with Y91S, S92Y, P93S, S94G, S95W, F96G, L97P, I98F
heavy: EVQLVESGGGLVQPGGSLRLSCAASGFNISSSYIHWVRQAPGKGLEWVASISSSSSYTYYADSVKGRFTISADTSKNTAYLQMNSLRAEDTAVYYCARSAYPFSWSYPSYVGYYSGLDYWGQGTLVTVSSASTKGPSVFPLAPSSKSTSGGTAALGCLVKDYFPEPVTVSWNSGALTSGVHTFPAVLQSSGLYSLSSVVTVPSSSLGTQTYICNVNHKPSNTKVDKKVEPKSC
notes: selection round 2; also called Fzd7-R2-D2
B5: B8 (Fab)
light: DIQMTQSPSSLSASVGDRVTITCRASQSVSSAVAWYQQKPGKAPKLLIYSASSLYSGVPSRFSGSRSGTDFTLTISSLQPEDFATYYCQQSSYSLITFGQGTKVEIKRTVAAPSVFIFPPSDSQLKSGTASVVCLLNNFYPREAKVQWKVDNALQSGNSQESVTEQDSKDSTYSLSSTLTLSKADYEKHKVYACEVTHQGLSSPVTKSFNRGECGGS
heavy: EVQLVESGGGLVQPGGSLRLSCAASGFNISSYYIHWVRQAPGKGLEWVASISSSYGYTYYADSVKGRFTISADTSKNTAYLQMNSLRAEDTAVYYCARPWSHYSSGAYWHPWSGHALDYWGQGTLVTVSSASTKGPSVFPLAPSSKSTSGGTAALGCLVKDYFPEPVTVSWNSGALTSGVHTFPAVLQSSGLYSLSSVVTVPSSSLGTQTYICNVNHKPSNTKVDKKVEPKSC
notes: selection round 2; also called Fzd7-R2-B8
B6: D6 (Fab)
light: B5 light with S91F, S92Y
heavy: EVQLVESGGGLVQPGGSLRLSCAASGFNISYSSMHWVRQAPGKGLEWVASIYSSYSYTSYADSVKGRFTISADTSKNTAYLQMNSLRAEDTAVYYCARSYGPWAPGWAAYWGGYGMDYWGQGTLVTVSSASTKGPSVFPLAPSSKSTSGGTAALGCLVKDYFPEPVTVSWNSGALTSGVHTFPAVLQSSGLYSLSSVVTVPSSSLGTQTYICNVNHKPSNTKVDKKVEPKSC
notes: selection round 2; also called Fzd7-R2-D6
B7: H11 (Fab)
light: B1 light with A91Y, Y92S, Y93G, L94P
heavy: EVQLVESGGGLVQPGGSLRLSCAASGFNISSSYIHWVRQAPGKGLEWVAYIYPYYSYTYYADSVKGRFTISADTSKNTAYLQMNSLRAEDTAVYYCARSVTYHSSGWVPPWYWGYAFDYWGQGTLVTVSSASTKGPSVFPLAPSSKSTSGGTAALGCLVKDYFPEPVTVSWNSGALTSGVHTFPAVLQSSGLYSLSSVVTVPSSSLGTQTYICNVNHKPSNTKVDKKVEPKSC
notes: selection round 2; also called Fzd7-R2-H11
B8: B12 (Fab, V domains shown)
VH: EVQLVESGGGLVQPGGSLRLSCAASGFNLSYSYMHWVRQAPGKGLEWVASISSSYGYTYYADSVKGRFTISADTSKNTAYLQMNSLRAEDTAVYYCARAAGPYWYSYWYSAMDYWGQGTLVTVSS
VL: DIQMTQSPSSLSASVGDRVTITCRASQSVSSAVAWYQQKPGKAPKLLIYSASSLYSGVPSRFSGSRSGTDFTLTISSLQPEDFATYYCQQSSYSLITFGQGTKVEIKR
notes: selection round 2; also called Fzd7-R2-B12
B9: A10 (Fab, V domains shown)
VH: EVQLVESGGGLVQPGGSLRLSCAASGFNFSSSSIHWVRQAPGKGLEWVAYIYPYYGYTYYADSVKGRFTISADTSKNTAYLQMNSLRAEDTAVYYCARWVVAGHYGMDYWGQGTLVTVSS
VL: DIQMTQSPSSLSASVGDRVTITCRASQSVSSAVAWYQQKPGKAPKLLIYSASSLYSGVPSRFSGSRSGTDFTLTISSLQPEDFATYYCQQSYWPGWPITFGQGTKVEIKR
notes: selection round 3; also called Fzd7-R3-A10

Target: T1, recombinant Frizzled receptor 7 (FZD7) cysteine-rich domain (CRD) fused to the Fc region of human IgG (human, UniProt O75084 33-185)
Assay: ELISA, 1ug/ml (20nM) Fab
Description: (§1) FIG. 2B is a table depicting the binding of purified Fabs to purified FZD7-Fc measured by ELISA. Fabs purified from 25 ml bacterial cultures were assayed for binding to FZD7-Fc fusion protein (R&D systems) and Fc protein. ELISA plates (384 well) were coated with 2 ug/ml of protein in PBS overnight at four degrees. Wells were blocked with 0.5% BSA/PBS for 1 hour at room temperature, washed three times with 0.05% Tween20/PBS (wash buffer), and then primary dilutions of Fabs in 0.5% BSA/0.05% Tween20/PBS (dilution buffer) were added at indicated concentrations. Fabs were incubated for 1 hour at room temperature, wells were washed six times, and anti-FLAG-HRP (Sigma) was added at 1:5000 in dilution buffer. Secondary antibody was incubated for 45 minutes at room temperature, and wells were washed six times and developed with TMB substrate with an acid stop. The absorbance at 450 nm was read. n.t.=not tested.

| Binder | OD 450 |
| --- | --- |
| B1 | 2.65 |
| B2 | 0.55 |
| B3 | 0.24 |
| B4 | 0.5 |
| B5 | 0.24 |
| B6 | 2.98 |
| B7 | 3.18 |

Target: T2, Fc control protein
T2 construct: also called Fc protein; control Fc protein
Assay: ELISA, 1ug/ml (20nM) Fab
Description: as §1

| Binder | OD 450 |
| --- | --- |
| B1 | 0.06 |
| B2 | 0.05 |
| B3 | 0.07 |
| B4 | 0.06 |
| B5 | 0.05 |
| B6 | 0.06 |
| B7 | 0.05 |

Target: T1, recombinant Frizzled receptor 7 (FZD7) …
Assay: ELISA, 10ug/ml (200nM) Fab
Description: as §1

| Binder | OD 450 |
| --- | --- |
| B1 | 3.21 |
| B2 | 1.36 |
| B3 | 1.09 |
| B4 | 1.6 |
| B5 | 1.16 |
| B6 | 3.09 |
| B7 | 3.23 |

Target: T2, Fc control protein
Assay: ELISA, 10ug/ml (200nM) Fab
Description: as §1

| Binder | OD 450 |
| --- | --- |
| B1 | 0.17 |
| B2 | 0.09 |
| B3 | 0.06 |
| B4 | 0.05 |
| B5 | 0.05 |
| B6 | 0.12 |
| B7 | 0.06 |

Target: T2, Fc control protein
Assay: ELISA, 1ug/ml (20nM) Fab [cont'd]
Description: as §1

| Binder | OD 450 |
| --- | --- |
| B8 | 0.05 |
| B9 | 0.05 |

Target: T2, Fc control protein
Assay: ELISA, 10ug/ml (200nM) Fab [cont'd]
Description: as §1

| Binder | OD 450 |
| --- | --- |
| B8 | 0.06 |
| B9 | 0.05 |

Target: T3, FZD7 receptor expressed on cells (full-length) (UniProt O75084 33-574, limits assumed)
T3 construct: whole, on cells; MDA MB 231 cells may carry other Frizzled receptors too; also called full-length FZD7 receptor; endogenous receptor on MDA MB 231 cells
Assay: flow cytometry, 200 nM Fab, MDA MB 231
Description: (§2) FIG. 3 is a table depicting the binding of the purified Fabs to cells expressing FZD7 (flow cytometry). Small scale Fabs were assayed for binding to full-length FZD7 receptor to an over-expression line in MDA MB 231 cells. In parallel, Fabs were assayed for binding to endogenous receptor expressed on the MDA MB 231 cells. Cells were harvested using an EDTA solution, blocked in 2% FBS/PBS (stain buffer), and stained with 200 nM Fab for 30 min on ice. Cells were washed two times with stain buffer and incubated with anti-F(ab′)₂-APC secondary antibody (Jackson Immuno) at 1:1000 for 15 minutes on ice. All antibodies were diluted in stain buffer. Cells were washed three times with stain buffer and then fixed with 1% paraformaldehye for analysis by flow cytometry. […] The percent of the cell population within the positive gates is indicated.

| Binder | % population within the positive gate [%] |
| --- | --- |
| B1 | 3.9 |
| B2 | 2.7 |
| B3 | 1 |
| B4 | 0.8 |
| B5 | 2.8 |
| B6 | 35.3 |

Target: T3, FZD7 receptor expressed on cells …
Assay: flow cytometry, 200 nM Fab, MDA MB 231 [cont'd]
Description: as §2

| Binder | % population within the positive gate [%] |
| --- | --- |
| B8 | 0.9 |

Target: T3, FZD7 receptor expressed on cells …
Assay: flow cytometry, 200 nM Fab, FZD7 over-expression line (MDA MB 231)
Description: as §2

| Binder | % population within the positive gate [%] |
| --- | --- |
| B1 | 88.1 |
| B2 | 83.5 |
| B3 | 42 |
| B4 | 75.2 |
| B5 | 80.9 |
| B6 | 84.3 |

Target: T3, FZD7 receptor expressed on cells …
Assay: flow cytometry, 200 nM Fab, FZD7 over-expression line (MDA MB 231) [cont'd]
Description: as §2

| Binder | % population within the positive gate [%] |
| --- | --- |
| B8 | 74.6 |
